# Measurements published in article PMC6868441 (Nucleic Acids Research, 2019).
# T1: ArlR full length (Staphylococcus aureus, UniProt Q9KJN4 1-219)
# T1 sequence: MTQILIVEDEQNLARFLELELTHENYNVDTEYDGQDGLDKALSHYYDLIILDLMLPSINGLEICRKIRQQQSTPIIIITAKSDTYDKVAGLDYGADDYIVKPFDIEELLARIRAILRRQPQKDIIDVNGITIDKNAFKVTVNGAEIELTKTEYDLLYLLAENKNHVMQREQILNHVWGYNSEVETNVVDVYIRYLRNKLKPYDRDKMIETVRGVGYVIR
# B1: ArlR receiver domain (amino acids 1–121) (domain or fragment, S. aureus, UniProt Q9KJN4 1-121, looked up)
# chain: MTQILIVEDEQNLARFLELELTHENYNVDTEYDGQDGLDKALSHYYDLIILDLMLPSINGLEICRKIRQQQSTPIIIITAKSDTYDKVAGLDYGADDYIVKPFDIEELLARIRAILRRQPQ
# B2: ArlR-BdDNA-wt 24 bp (dsDNA)
# DNA 1: TGATAGTATTTTAATTTGCAATAG
# DNA 2: CTATTGCAAATTAAAATACTATCA
# B3: Position 1,4&6 mutation 24 bp (dsDNA)
# DNA 1: TGCTATTCTTTTAATTGGAAAGAG
# DNA 2: CTCTTTCCAATTAAAAGAATAGCA
# Key:
# SEC = target: the molecule itself; assay: SEC
# ArlR full length = target: T1, ArlR full length; assay: EMSA
Binder,stoichiometry N (SEC),binding result (ArlR full length)
B1,2,
B2,,binds
B3,,no binding
